Molecular target: T1, Strep-PhoR, sensor kinase PhoR from E. coli, purified (E. coli, UniProt P08400 1-431)
T1 construct: sensor kinase PhoR of Escherichia coli; one of 'both Strep-PhoR proteins' of the methods; also called E. coli PhoR; source: E. coli BL21, purified (membranes solubilised with Triton X-100, Strep-Tactin)
T1 sequence (looked up): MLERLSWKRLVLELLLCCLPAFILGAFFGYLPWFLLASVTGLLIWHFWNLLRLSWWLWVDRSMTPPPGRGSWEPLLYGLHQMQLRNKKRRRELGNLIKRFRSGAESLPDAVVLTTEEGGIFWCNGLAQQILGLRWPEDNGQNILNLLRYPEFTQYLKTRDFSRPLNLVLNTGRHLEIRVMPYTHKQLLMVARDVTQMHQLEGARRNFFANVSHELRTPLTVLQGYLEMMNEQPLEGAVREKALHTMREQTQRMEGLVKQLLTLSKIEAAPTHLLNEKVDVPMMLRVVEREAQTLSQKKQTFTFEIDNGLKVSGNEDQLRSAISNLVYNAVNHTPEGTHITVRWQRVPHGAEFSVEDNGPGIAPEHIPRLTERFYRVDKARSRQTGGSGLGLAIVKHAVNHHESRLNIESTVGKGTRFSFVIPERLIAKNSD
Assay: far-Western, overlay or dot blot; Far-Western dot blot: Strep-tagged bait proteins spotted on a nitrocellulose membrane, incubated with His-SUMO-tagged DUF1127 protein, detected with anti-His antibody; EveryBlot blocking buffer, PBST washes (for E. coli PhoR and YjiS, Fig. 8B, it is not told who was spotted)
Conditions: both partners purified

B1: YjiS from E. coli, purified (natural protein, UniProt P39390 1-54, looked up)
chain: MEFHENRAKAPFIGLVQLWQAVRRWRRQMQTRRVLQQMSDERLKDIGLRREDVE
notes: YjiS, the sole DUF1127 protein of Escherichia coli, a 54-amino acid protein; also called E. coli YjiS
  binding result: binds

Reference: paper PMC12501420, “Small DUF1127 proteins regulate bacterial phosphate metabolism through protein–protein interactions with the sensor kinase PhoR” (microLife, 2025)
